Data on eight molecules can be found in patent US20230203146A1 (Boehringer Ingelheim, published 2023).

In assay [1] the target is T1, FLAG-tagged cynomolgus Ang2 (cynomolgus, UniProt O15123 19-496 (human entry), limits assumed).
T1 construct: N-terminally FLAG-tagged, conditioned medium of HEK293T cells; also called cAng2; FLAG-cAng2
T1 chain: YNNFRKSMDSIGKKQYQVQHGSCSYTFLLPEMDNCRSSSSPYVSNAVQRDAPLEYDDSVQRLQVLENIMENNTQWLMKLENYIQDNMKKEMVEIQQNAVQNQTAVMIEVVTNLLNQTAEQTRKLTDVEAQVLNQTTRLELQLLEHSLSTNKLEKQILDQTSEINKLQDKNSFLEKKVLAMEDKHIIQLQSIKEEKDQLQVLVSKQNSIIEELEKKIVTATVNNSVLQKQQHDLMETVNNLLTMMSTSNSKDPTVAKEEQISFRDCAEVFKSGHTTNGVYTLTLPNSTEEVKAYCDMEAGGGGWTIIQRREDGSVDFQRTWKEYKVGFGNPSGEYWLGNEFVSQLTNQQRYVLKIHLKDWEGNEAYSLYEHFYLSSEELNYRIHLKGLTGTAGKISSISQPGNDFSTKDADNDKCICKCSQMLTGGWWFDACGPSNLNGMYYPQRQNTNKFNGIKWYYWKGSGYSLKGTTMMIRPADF
The assay is described as follows: competition ELISA: FLAG-cAng2 binding to coated cTie2-Fc. How it is done:
(§1) In brief, 2 μg/mL of recombinant mouse Tie2-Fc or cyno Tie2-Fc is coated overnight at 4° C. in a 96-well MaxiSorp plate (Nunc, Wiesbaden, Germany). Coated wells are blocked with a 1% casein solution.
(ELISA stands for enzyme-linked immunosorbent assay.)

Assay [2] has as its target T2, FLAG-tagged mouse Ang2 (mouse, UniProt O35608 19-496).
T2 construct: N-terminally FLAG-tagged, conditioned medium of HEK293T cells; also called mAng2; FLAG-mAng2
T2 sequence: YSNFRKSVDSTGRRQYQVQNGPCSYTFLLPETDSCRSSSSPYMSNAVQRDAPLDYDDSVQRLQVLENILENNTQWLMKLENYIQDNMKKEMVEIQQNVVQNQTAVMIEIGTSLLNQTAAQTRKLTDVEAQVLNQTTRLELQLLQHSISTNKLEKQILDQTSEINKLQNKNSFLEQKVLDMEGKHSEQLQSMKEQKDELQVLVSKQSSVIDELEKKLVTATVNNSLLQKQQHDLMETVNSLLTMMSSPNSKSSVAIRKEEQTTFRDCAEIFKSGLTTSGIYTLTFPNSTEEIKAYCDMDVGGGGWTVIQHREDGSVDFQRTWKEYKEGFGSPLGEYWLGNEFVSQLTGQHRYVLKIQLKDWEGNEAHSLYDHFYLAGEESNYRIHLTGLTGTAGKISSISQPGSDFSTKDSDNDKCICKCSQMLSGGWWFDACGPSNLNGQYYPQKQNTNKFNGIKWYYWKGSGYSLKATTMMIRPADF
The assay is described as follows: competition ELISA: FLAG-mAng2 binding to coated mTie2-Fc. Here is the method: as §1

Another assay concerns the target T3, recombinant rat Ang2-FLD (rat, UniProt O35462 275-496, limits assumed).
T3 construct: domain: FLD
T3 sequence (looked up): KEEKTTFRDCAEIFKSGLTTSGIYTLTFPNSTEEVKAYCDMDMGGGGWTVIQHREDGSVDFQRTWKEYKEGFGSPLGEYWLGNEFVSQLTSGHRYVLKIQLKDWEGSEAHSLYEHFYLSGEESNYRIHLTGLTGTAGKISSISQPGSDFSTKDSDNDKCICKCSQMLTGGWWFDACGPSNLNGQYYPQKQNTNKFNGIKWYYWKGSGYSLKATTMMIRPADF
The experiment in a line: SPR (Biacore T100), VHH immobilized, Ang2-FLD injected.

Assay [3] concerns the target T4, recombinant human Ang2-FLD (human, UniProt O15123 275-496, limits assumed).
T4 construct: domain: FLD
T4 sequence (looked up): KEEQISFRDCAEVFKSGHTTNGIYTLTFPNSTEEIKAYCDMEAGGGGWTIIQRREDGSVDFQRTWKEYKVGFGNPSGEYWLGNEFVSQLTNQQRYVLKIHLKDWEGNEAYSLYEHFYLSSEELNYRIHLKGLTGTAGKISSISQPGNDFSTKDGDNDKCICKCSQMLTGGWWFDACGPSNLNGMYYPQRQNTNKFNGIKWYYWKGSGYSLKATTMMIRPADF
Described as above.

Assay [4] deals with T5, recombinant cynomolgus Ang2-FLD (cynomolgus, UniProt A0A2K5VNX6 275-496).
T5 construct: domain: FLD; also called cyno Ang2-FLD
T5 sequence: T4 sequence (looked up) with E2G, I23V, F28L, I35V, G154A, A212G, D221G
Described as above.

In assay [5] the target is T6, recombinant mouse Ang2-FLD (mouse, UniProt O35608 275-496, limits assumed).
T6 construct: domain: FLD
T6 sequence (looked up): T3 sequence (looked up) with K4Q, V35I, M43V, S91G, G92Q, S107N, E114D, S119A, T168S
The description is as above.

Assay [6] addresses T7, N-terminally FLAG-tagged cynomolgus Ang2 (HEK293T conditioned medium) (cynomolgus, UniProt O15123 19-496 (human entry), limits assumed).
T7 construct: may be a nucleotide entry; also called cAng2; FLAG-cAng2
T7 chain: T1 chain
The assay is described as follows: competition ELISA, FLAG-cAng2 on coated cTie2-Fc. How it is done: as §1

The target in assay [7] is T8, FLAG-tagged recombinant human Ang1 (Alexis Biochemicals) (human, UniProt Q15389 20-498, limits assumed).
T8 construct: Bought reagent; also called hAng1; FLAG-hAng1
T8 sequence (looked up): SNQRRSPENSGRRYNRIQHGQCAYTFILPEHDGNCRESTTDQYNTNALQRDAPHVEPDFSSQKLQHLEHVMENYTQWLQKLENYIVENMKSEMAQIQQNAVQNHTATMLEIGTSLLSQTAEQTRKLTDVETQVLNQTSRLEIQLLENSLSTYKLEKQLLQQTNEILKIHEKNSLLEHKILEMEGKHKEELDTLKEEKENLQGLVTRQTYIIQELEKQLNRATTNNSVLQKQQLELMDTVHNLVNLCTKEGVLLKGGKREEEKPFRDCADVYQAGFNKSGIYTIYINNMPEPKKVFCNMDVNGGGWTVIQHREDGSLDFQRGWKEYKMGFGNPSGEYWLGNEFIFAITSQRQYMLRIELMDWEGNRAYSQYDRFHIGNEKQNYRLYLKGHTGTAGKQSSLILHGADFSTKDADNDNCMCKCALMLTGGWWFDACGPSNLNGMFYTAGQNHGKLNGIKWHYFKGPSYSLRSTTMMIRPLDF
The assay is described as follows: ratio of IC50 in hAng1/hTie2 ELISA to IC50 in hAng2/hTie2 ELISA. Here is the method: In brief, 2 μg/mL of Tie2/Fc chimera (R&D Systems, Minneapolis, Minn., USA) is coated in a 96-well MaxiSorp plate (Nunc, Wiesbaden, Germany).
In brief, 2 μg/mL of recombinant human Tie2-Fc (R&D Systems, Minneapolis, Minn., USA) is coated overnight at 4° C. in a 96-well MaxiSorp plate (Nunc, Wiesbaden, Germany). Coated wells are blocked with a 1% casein solution.

Assay [8] deals with T9, N-terminally FLAG-tagged mouse Ang2 (HEK293T conditioned medium) (mouse, UniProt O35608 19-496).
T9 construct: may be a nucleotide entry; also called mAng2; FLAG-mAng2
T9 sequence: T2 sequence
The assay is described as follows: competition ELISA, FLAG-mAng2 on coated mTie2-Fc. How it is done:
as §1

Assay [9] deals with T2, FLAG-tagged mouse Ang2. The experiment in a line: competition ELISA: FLAG-mAng2 binding to coated mTie2-Fc. How it is done:
as §1
This is another data set of the same source.

Assay [10] addresses T2, FLAG-tagged mouse Ang2. Described as above. Here is the method:
as §1
The source holds these as a separate data set.

Assay [11] addresses T1, FLAG-tagged cynomolgus Ang2. The experiment in a line: competition ELISA: FLAG-cAng2 binding to coated cTie2-Fc. How it is done:
as §1

For assay [12] the target is unchanged. The description is as above. How it is done:
as §1

Numbering of substitutions follows the chain as printed. Read-outs that look alike come from different tables or passages of the source. Bounds are passed on as bounds.

B1: VHH 00932 (VHH, not shown: small tags and cut ends)
VHH: EVQLVESGGGLVQPGGSLRLSCAVSGITLDDYAIGWFRQAPGKEREGVSSIRDNGGSTYYADSVKGRFTISSDNSKNTVYLQMNSLRPEDTAVYYCAAVPAGRLRYGEQWYPIYEYDAWGQGTLVTVSS
notes: Cycle 3 variant of 28D10 on the 00908 backbone
Take B1: the IC50 (usually the concentration that gives 50% inhibition) in [1] stood at 0.054 nM; with FLAG-tagged mouse Ang2 [2], 0.038 nM.

B2: VHH 00956 (VHH, not shown: small tags and cut ends)
VHH: B1 VHH with V24A, I27F, S50A, D53S, N54S, Y106F, I113L
Consider B2, for which the Kd (commonly the equilibrium constant for the complex coming apart) was found to be 13 nM with recombinant rat Ang2-FLD, 1.2 nM in assay [3], 0.72 nM in assay [4] and 4 nM in assay [5]. Moreover, the koff – broadly, a measure of how fast the partners let go of each other – in the assay with recombinant rat Ang2-FLD worked out at 0.0052 s⁻¹; in [3], 0.0015 s⁻¹; in assay [4], 0.0013 s⁻¹; in assay [5], 0.0039 s⁻¹. Besides, the kon (in general, a measure of how fast the partners come together) amounted to 420000 M⁻¹ s⁻¹ with recombinant rat Ang2-FLD, 1.3e+06 M⁻¹ s⁻¹ in assay [3], 1.7e+06 M⁻¹ s⁻¹ in assay [4] and 980000 M⁻¹ s⁻¹ in [5]. The IC50 was 0.83 nM in [1] and 2.2 nM with FLAG-tagged mouse Ang2 [2].

B3: VHH 00935 (VHH, not shown: small tags and cut ends)
VHH: B1 VHH with V24A, S50A, D53S, N54S
notes: as for B1
Consider B3, for which the IC50 in assay [1] was 0.069 nM; with FLAG-tagged mouse Ang2 [2] it was 0.078 nM.

B4: VHH 00938 (VHH, not shown: small tags and cut ends)
VHH: B1 VHH with S50A, D53S, N54S
notes: as for B1
With B4, the Kd was 0.14 nM with recombinant rat Ang2-FLD, 0.017 nM in assay [3], 0.0087 nM in [4] and 0.05 nM in assay [5]. In addition, the koff stood at 7.2e-05 s⁻¹ with recombinant rat Ang2-FLD, 2.8e-05 s⁻¹ in [3], 2.2e-05 s⁻¹ in assay [4] and 5.6e-05 s⁻¹ in [5]. Further, the kon turned out to be 510000 M⁻¹ s⁻¹ with recombinant rat Ang2-FLD, 1.6e+06 M⁻¹ s⁻¹ in [3], 2.6e+06 M⁻¹ s⁻¹ in assay [4] and 1.1e+06 M⁻¹ s⁻¹ in [5]. The half-maximal inhibitory concentration (IC50) stood at 0.091 nM in [1] and 0.055 nM in the assay with FLAG-tagged mouse Ang2 [2].

B5: VHH 00933 (VHH, not shown: small tags and cut ends)
VHH: B1 VHH with V24A, S50A
notes: as for B1
As for B5, the figures for the IC50 (in assay [1]; with FLAG-tagged mouse Ang2 [2]) were 0.071 nM and 0.062 nM, respectively.

B6: VHH 37A09 (VHH)
VHH: EVQLMESGGGLVQPGGSLRLSCAASGFALDYYAIGWFRQVPGKEREGVSCISSSDGITYYVDSVKGRFTISRDNAKNTVYLQMNSLKPGDTAVYYCATDSGGYIDYDCMGLGYDYWGQGTQVTVSS
notes: also called 037A09; not shown: C-terminal c-myc tag and His6 tag
With B6, the IC50 in [6] was 0.2 nM; in [8], 0.1 nM. The hAng1/hAng2 ratio in assay [7] was greater than 100000.

B7: VHH 37F02 (VHH, not shown: small tags and cut ends)
VHH: B6 VHH with M5V, V40A, G89E
notes: Parental llama VHH; also called 037F02
As for B7, the IC50 in the assay with FLAG-tagged mouse Ang2 [9] came out at 0.11 nM; with FLAG-tagged mouse Ang2 [10], 0.11 nM; in [11] it was 0.15 nM; in [12] it was 0.15 nM.

B8: VHH 37F02 (VHH)
VHH: B6 VHH with M5V, V40A, G89E
notes: also called 037F02; not shown: C-terminal c-myc tag and His6 tag
In the case of B8, the IC50 was 0.1 nM in [6] and 0.09 nM in assay [8]. The hAng1/hAng2 ratio in assay [7] is greater than 100000.
